{"source": "patent CN112250763A", "about": "(SANYOU BIOPHARMACEUTICALS SHANGHAI CO LTD; SHANGHAI ZJ BIO …, dated 2021)", "target": "S蛋白RBD-His(319Arg-532Asn) (SARS-CoV-2, UniProt P0DTC2 319-532)"}
{"binder": "R16-F10抗体 (antibody, V domains shown) VH: QVQLVQSGPEVKEPGSSVKVSCKASGGTFDTAAISWVRQAPGQGPEWMGGIIPIFGTANYAQKFQGRVTITADESTSTAYMELSSLRSEDTAVYYCAREHTVAPVYGFDVWGQGTLVTVSS VL: not shown", "values": [{"measurement": "EC50", "result": 0.05, "unit": "µg/mL"}]}
